# From IntAct's records for PubMed 19879842
# Residue numbers refer to the chain shown, from its start.
# B1: Dual specificity tyrosine-phosphorylation-regulated kinase mbk-2 (Caenorhabditis elegans), Q9XTF3-2 (parent)
# chain: MTLFEPSTSGNRMGYRGSSNSSSGVGSGGSGSLMTQSIGGPNKHLSASHSTLNTASTHDMMHSKIPKSPSNESLSRSHTSSSGGSQGGHNSNSGSNSGFRPEDAVQTFGAKLVPFEKNEIYNYTRVFFVGSHAKKQAGVIGGANNGGYDDENGSYQLVVHDHIAYRYEVLKVIGKGSFGQVIKAFDHKYQQYVALKLVRNEKRFHRQADEEIRILDHLRRQDSDGTHNIIHMLDYFNFRNHKCITFELLSINLYELIKRNKFQGFSLMLVRKFAYSMLLCLDLLQKNRLIHCDLKPENVLLKQQGRSGIKVIDFGSSCFDDQRIYTYIQSRFYRAPEVILGTKYGMPIDMWSLGCILAELLTGYPLLPGEDENDQLALIIELLGMPPPKSLETAKRARTFITSKGYPRYCTATSMPDGSVVLAGARSKRGKMRGPPASRSWSTALKNMGDELFVDFLKRCLDWDPETRMTPAQALKHKWLRRRLPNPPRDGLESMGGLADHEVCFIIF
# partner: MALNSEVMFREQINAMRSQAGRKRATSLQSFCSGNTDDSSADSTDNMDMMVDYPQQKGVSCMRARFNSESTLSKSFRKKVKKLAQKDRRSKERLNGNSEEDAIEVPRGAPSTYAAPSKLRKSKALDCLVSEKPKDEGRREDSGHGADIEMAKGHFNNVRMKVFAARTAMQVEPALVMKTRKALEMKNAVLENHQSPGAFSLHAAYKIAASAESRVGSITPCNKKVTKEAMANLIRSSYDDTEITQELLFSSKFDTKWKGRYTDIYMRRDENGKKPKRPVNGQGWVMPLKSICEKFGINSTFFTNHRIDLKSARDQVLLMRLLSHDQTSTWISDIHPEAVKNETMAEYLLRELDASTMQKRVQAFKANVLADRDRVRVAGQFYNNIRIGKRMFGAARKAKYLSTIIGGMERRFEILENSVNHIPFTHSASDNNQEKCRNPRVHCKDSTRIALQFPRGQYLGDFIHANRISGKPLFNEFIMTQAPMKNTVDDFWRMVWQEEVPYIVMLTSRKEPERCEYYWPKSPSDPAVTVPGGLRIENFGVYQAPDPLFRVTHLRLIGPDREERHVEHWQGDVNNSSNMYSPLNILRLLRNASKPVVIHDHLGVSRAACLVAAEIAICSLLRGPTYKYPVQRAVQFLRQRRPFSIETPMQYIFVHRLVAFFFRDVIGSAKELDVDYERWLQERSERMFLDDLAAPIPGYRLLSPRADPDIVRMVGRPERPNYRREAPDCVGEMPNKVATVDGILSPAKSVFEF
# B2: Dual specificity tyrosine-phosphorylation-regulated kinase mbk-2 (Caenorhabditis elegans), Q9XTF3-2 (parent)
# chain: B1 chain
# partner: B1 partner with R139S, N157D, T255S, M344L, K444R, T739A
# Variants of: B1
# Details: with egg4_caeel egg-4, O01767
row,effect of a mutation on the interaction,Variant
1,decreasing interaction,Y325F;Y327F
2,decreasing interaction,K196R

# Variants of: B2
# Details: with egg5_caeel egg-5, O61789
row,effect of a mutation on the interaction,Variant
1,decreasing interaction,K196R
2,decreasing interaction,Y325F;Y327F
